This is an account of results in article PMC3633684.

Substrate in the data set: CC(=O)Oc1ccc([N+](=O)[O-])cc1
Description: purified protein. As to conditions: 40 mM phosphate buffer pH 7.4, 37 °C, 0.2 μM HfsH. The class given is biochemical, Caulobacter vibrioides.

B1: HfsH (Caulobacter vibrioides CB15) (protein)
chain: MPMEFEKVDAYEPDRSLKGKLRRRLIRLAHRRPAKVALERPMVSFSFDDAPATACEAGARALEARGLRGTYYFAAGLTGRDGPMGRYATGEDARRLHEAGHEIACHTYSHLDCGQSSQTETLADVDRNAESLAAWGAGDPVSFAYPYGDVAAPAKTALSGRFKTLRALHHGLITDGADLNQTPAVGIEGEDGETVAKAWLDKAKARKAWLILYTHDVAGQPSQWGCTTEALERLIDRALADGFDVVTVAEGSRRIGL
For B1, the Km turned out to be 11.74 mM.
